This is an account of results in patent publication EP4751739A1 (Jiangsu Hengrui Pharmaceuticals Co., Ltd., dated 2025).

Assay [1] addresses T1, human c-Met on tumor cell lines (human, UniProt P08581 25-1390). The experiment in a line: cell-based or functional assay.
Assay [2] has as its target T1, human c-Met on tumor cell lines. The experiment in a line: cell-based or functional assay. This is another data set of the same source.
The target in assay [3] is T2, Cynomolgus monkey c-Met protein (cynomolgus monkey).
T2 construct: Soluble analyte in Biacore; also called cyno-c-Met
The experiment in a line: SPR (Biacore 8K), ADC captured on Protein A chip, c-Met protein as analyte, 25 °C, 1:1 Langmuir fit.

Assay [4] deals with T2, Cynomolgus monkey c-Met protein. Briefly: SPR (Biacore 8K), antibody captured on Protein A chip, c-Met protein as analyte, 25 °C, 1:1 Langmuir fit.

T1 sequence (P08581 25-1390): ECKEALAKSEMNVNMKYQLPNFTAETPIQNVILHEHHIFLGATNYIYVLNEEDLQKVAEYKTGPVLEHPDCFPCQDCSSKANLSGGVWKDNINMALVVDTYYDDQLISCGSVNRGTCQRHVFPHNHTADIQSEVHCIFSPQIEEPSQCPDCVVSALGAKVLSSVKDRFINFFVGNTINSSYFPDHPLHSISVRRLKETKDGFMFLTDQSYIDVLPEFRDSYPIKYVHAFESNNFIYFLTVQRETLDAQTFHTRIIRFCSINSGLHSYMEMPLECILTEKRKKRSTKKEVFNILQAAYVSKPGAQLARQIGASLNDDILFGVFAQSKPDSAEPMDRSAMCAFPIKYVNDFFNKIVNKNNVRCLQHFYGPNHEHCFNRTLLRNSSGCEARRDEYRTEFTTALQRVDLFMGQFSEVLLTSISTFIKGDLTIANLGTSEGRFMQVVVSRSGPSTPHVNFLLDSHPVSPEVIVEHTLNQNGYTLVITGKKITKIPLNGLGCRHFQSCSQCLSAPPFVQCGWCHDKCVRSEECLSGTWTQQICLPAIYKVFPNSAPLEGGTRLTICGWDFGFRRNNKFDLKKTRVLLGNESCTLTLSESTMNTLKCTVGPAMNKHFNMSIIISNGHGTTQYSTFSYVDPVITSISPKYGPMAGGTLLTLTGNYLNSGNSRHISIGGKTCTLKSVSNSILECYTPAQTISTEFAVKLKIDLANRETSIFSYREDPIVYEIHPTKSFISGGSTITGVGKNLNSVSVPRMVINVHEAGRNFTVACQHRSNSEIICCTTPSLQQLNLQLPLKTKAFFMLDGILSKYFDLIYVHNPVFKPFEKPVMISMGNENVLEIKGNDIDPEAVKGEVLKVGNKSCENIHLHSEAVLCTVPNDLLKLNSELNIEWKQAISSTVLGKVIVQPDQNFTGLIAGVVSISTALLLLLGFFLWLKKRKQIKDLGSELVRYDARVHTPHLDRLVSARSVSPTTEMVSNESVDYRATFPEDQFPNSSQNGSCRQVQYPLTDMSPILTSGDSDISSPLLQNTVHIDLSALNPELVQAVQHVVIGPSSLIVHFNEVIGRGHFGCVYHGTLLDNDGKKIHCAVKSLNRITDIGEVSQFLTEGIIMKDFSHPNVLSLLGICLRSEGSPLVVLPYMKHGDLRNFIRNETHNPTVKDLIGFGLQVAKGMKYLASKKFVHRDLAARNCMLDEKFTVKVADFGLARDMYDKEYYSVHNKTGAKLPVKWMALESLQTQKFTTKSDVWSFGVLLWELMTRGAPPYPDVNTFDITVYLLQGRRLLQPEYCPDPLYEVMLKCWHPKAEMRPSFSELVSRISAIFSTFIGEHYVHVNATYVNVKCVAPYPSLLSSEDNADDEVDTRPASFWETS

B1: antibody-drug conjugate-1 (ADC-1) (antibody, human IgG2, kappa, V domains shown)
VH: QVQLVESGGGVVQPGRSLRLSCAASGFSLSNYGVHWVRQAPGKGLEWLAVIWSGGSTNYAAAFVSRLTISKDNSKNTVYLQMNSLRAEDTAVYYCARNHDNPYNYAMDYWGQGTTVTVSS
VL: DIVLTQSPDSLAVSLGERATINCRADKSVSTSTYNYLHWYQQKPGQPPKLLIYLASNLASGVPDRFSGSGSGTDFTLTISSLQAEDVAVYYCQHSRDLPPTFGQGTKLEIKR
modifications: compound 9-A may also be coupled to reduced cysteines of this chain; positions not given; compound 9-A (maleimidocaproyl-GGFG linker with exatecan derivative) coupled to cysteines of the TCEP-reduced antibody; positions not given; target DAR n = 5.3, found n = 4.7-5.9 per antibody
For the molecule B1, in assay [1], the “IC50 for the inhibition of proliferation, EBC-1 cells (c-Met expression High), CellTiter Glo, 6 days” value worked out at 65 pM; the “IC50 for the inhibition of proliferation, HCT116 cells (c-Met expression Low), CellTiter Glo, 6 days” value is 23900 pM; the “IC50 for the inhibition of proliferation, Hs 746T cells (c-Met expression High), CellTiter Glo, 6 days” value worked out at 125 pM; the “IC50 for the inhibition of proliferation, MKN-45 cells (c-Met expression High), CellTiter Glo, 6 days” value stood at 55 pM. Besides, in assay [1], the “IC50 for the inhibition of proliferation, NCI-H441 cells (c-Met expression Moderate), CellTiter Glo, 6 days” value was found to be 480 pM; the “IC50 for the inhibition of proliferation, NCI-H1299 cells (c-Met expression Low), CellTiter Glo, 6 days” value was over 200000 pM; the “IC50 for the inhibition of proliferation, NCI-H1993 cells (c-Met expression High), CellTiter Glo, 6 days” value is 181 pM; the “IC50 for the inhibition of proliferation, NCI-N87 cells (c-Met expression Low), CellTiter Glo, 6 days” value is over 200000 pM. In addition, the “IC50 for the inhibition of proliferation, SW480 cells (c-Met expression Low), CellTiter Glo, 6 days” value in assay [1] is over 200000 pM. For the same molecule, in assay [2], the “Endocytosis ratio% at 0 h, EBC-1 cells, 20 nM, flow cytometry” value was found to be 0%; the “Endocytosis ratio% at 0.5 h, EBC-1 cells, 20 nM, flow cytometry” value was determined as 30.2%; the “Endocytosis ratio% at 2 h, EBC-1 cells, 20 nM, flow cytometry” value came to 61%; the “Endocytosis ratio% at 4 h, EBC-1 cells, 20 nM, flow cytometry” value amounted to 80.6%. Besides, the “Endocytosis ratio% at 24 h, EBC-1 cells, 20 nM, flow cytometry” value in assay [2] is 98.2%. For the same molecule, binding in assay [3] was put at a Kd of 48500 pM.

B2: Ab-10 humanized antibody (antibody, human IgG2, kappa, V domains shown)
VH: B1 VH
VL: B1 VL
notes: Humanized anti-c-Met antibody; Embodiments name human IgG2 and kappa constant regions; also called naked antibody Ab-10; Ab-10 Naked antibody
Take B2: in assay [1], the “IC50 for the inhibition of proliferation, EBC-1 cells (c-Met expression High), CellTiter Glo, 6 days” value came to 51 pM; the “IC50 for the inhibition of proliferation, HCT116 cells (c-Met expression Low), CellTiter Glo, 6 days” value was over 200000 pM; the “IC50 for the inhibition of proliferation, Hs 746T cells (c-Met expression High), CellTiter Glo, 6 days” value came to 134 pM; the “IC50 for the inhibition of proliferation, MKN-45 cells (c-Met expression High), CellTiter Glo, 6 days” value stood at 176 pM. In addition, in assay [1], the “IC50 for the inhibition of proliferation, NCI-H441 cells (c-Met expression Moderate), CellTiter Glo, 6 days” value was over 200000 pM; the “IC50 for the inhibition of proliferation, NCI-H1299 cells (c-Met expression Low), CellTiter Glo, 6 days” value is over 200000 pM; the “IC50 for the inhibition of proliferation, NCI-H1993 cells (c-Met expression High), CellTiter Glo, 6 days” value came out at 203 pM; the “IC50 for the inhibition of proliferation, NCI-N87 cells (c-Met expression Low), CellTiter Glo, 6 days” value was over 200000 pM. Besides, the “IC50 for the inhibition of proliferation, SW480 cells (c-Met expression Low), CellTiter Glo, 6 days” value in assay [1] was over 200000 pM. Also, in assay [2], the “Endocytosis ratio% at 0 h, EBC-1 cells, 20 nM, flow cytometry” value turned out to be 0%; the “Endocytosis ratio% at 0.5 h, EBC-1 cells, 20 nM, flow cytometry” value turned out to be 24.5%; the “Endocytosis ratio% at 2 h, EBC-1 cells, 20 nM, flow cytometry” value amounted to 62.6%; the “Endocytosis ratio% at 4 h, EBC-1 cells, 20 nM, flow cytometry” value came out at 83%. Also, the “Endocytosis ratio% at 24 h, EBC-1 cells, 20 nM, flow cytometry” value in assay [2] came to 98.4%. Moreover, the Kd in assay [4] was found to be 47900 pM.
